# Assay results published in patent publication US20250115669A1, “FGFR1/KLB Targeting Agonistic Antigen-Binding Proteins and Conjugates Thereof with GLP-1R Agonistic Peptides” (SANOFI, priority 2020, published 2025).
# Target: T1, human beta-Klotho (Homo sapiens, UniProt Q86Z14)
# T1 sequence (Q86Z14 1-1044): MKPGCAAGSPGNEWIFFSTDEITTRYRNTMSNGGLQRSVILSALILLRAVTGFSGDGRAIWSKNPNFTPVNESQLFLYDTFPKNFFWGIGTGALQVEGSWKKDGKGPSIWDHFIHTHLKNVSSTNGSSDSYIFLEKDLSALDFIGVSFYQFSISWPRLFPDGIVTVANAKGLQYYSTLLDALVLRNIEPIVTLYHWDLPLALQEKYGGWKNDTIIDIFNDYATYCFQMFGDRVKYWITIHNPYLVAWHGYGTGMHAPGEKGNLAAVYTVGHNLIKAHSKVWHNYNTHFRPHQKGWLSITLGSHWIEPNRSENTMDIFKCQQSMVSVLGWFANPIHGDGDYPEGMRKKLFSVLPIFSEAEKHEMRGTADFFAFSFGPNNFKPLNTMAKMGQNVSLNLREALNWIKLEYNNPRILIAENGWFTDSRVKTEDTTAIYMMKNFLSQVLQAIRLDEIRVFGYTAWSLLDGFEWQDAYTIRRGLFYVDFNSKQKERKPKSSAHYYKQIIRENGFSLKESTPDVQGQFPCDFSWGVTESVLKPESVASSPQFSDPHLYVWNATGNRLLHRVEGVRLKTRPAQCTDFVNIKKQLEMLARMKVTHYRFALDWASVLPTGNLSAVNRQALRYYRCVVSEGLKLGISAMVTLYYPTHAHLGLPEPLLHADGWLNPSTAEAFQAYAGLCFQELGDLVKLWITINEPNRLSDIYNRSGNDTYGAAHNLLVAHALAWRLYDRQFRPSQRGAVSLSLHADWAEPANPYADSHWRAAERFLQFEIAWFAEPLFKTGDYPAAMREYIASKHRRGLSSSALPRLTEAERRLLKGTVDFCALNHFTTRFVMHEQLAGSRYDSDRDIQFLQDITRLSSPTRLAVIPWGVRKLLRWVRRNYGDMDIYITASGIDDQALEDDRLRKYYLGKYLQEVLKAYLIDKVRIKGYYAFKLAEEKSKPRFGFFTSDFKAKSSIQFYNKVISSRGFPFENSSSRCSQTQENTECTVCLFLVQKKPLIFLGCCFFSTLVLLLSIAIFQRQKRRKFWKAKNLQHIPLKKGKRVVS
# Experiment: SPR off-rate screening of antibody mutants (human beta-Klotho captured by anti-His antibody)
# Format: binding
# Conditions: mean, n=3
# Protocol: Screening of antibody mutants for binding to human beta-Klotho was determined in a different SPR assay set up. Human beta-Klotho was affinity captured by an anti-His antibody (from His capture kit, GE Healthcare) that was immobilized to a series S CM5 chip (GE Healthcare) by amine reactive coupling as described above. The antibody samples were used as analytes at 50 nmol/L concentration. Association time was 240 sec and dissociation time was 300 sec. Chip surfaces were regenerated using the regeneration solution supplied with the His capture kit. The off-rates (kd) were determined using single exponential fitting in the Biacore 8K Evaluation Software version 1.1.1.7442 (GE Healthcare).
row,koff human KLB,Substance
1,no binding,"Ab0386: IgG4 PE; 16H7 VL (D95S, W90F); 16H7 VH (M34V, F54W, I83T, D109E)"
2,invalid fit,"Ab0300: IgG4 PE; 16H7 VL (D49Y, D91T); 16H7 VH (M34V, I83T, D109E)"
3,0.000915 s⁻¹,"Ab0219: IgG4 PE; 16H7 VL (N93E); 16H7 VH (I83T, D109S)"
4,0.000104 s⁻¹,"Ab0186: IgG4 PE; 16H7 VL; 16H7 VH (M34V, I83T)"
5,0.00194 s⁻¹,"Ab0196: IgG4 PE; 16H7 VL (D50E); 16H7 VH (I83T, D109E)"
6,0.000387 s⁻¹,"Ab0189: IgG4 PE; 16H7 VL (D50E); 16H7 VH (M34V, I83T)"
7,0.000337 s⁻¹,"Ab0193: IgG4 PE; 16H7 VL; 16H7 VH (I83T, D109E)"
8,0.00157 s⁻¹,"Ab0295: IgG4 PE; 16H7 VL (N25S, D49Y); 16H7 VH (M34V, I83T, D109E)"
9,0.00011 s⁻¹,Ab0234: IgG4 PE; 16H7 VL (N93S); 16H7 VH
10,0.00133 s⁻¹,"Ab0204: IgG4 PE; 16H7 VL (D91T); 16H7 VH (M34V, I83T, D109E)"
11,0.000336 s⁻¹,"Ab0201: IgG4 PE; 16H7 VL (N25S); 16H7 VH (M34V, I83T, D109E)"
12,0.00156 s⁻¹,"Ab0297: IgG4 PE; 16H7 VL (D49Y, D50E); 16H7 VH (M34V, I83T, D109E)"
13,invalid fit,"Ab0192: IgG4 PE; 16H7 VL (D95E); 16H7 VH (M34V, I83T)"
14,0.000195 s⁻¹,"Ab0190: IgG4 PE; 16H7 VL (D91T); 16H7 VH (M34V, I83T)"
15,0.00668 s⁻¹,"Ab0218: IgG4 PE; 16H7 VL (D91T); 16H7 VH (I83T, D109S)"
16,0.00151 s⁻¹,"Ab0203: IgG4 PE; 16H7 VL (D50E); 16H7 VH (M34V, I83T, D109E)"
17,0.00125 s⁻¹,"Ab0215: IgG4 PE; 16H7 VL (N25S); 16H7 VH (I83T, D109S)"
18,0.00185 s⁻¹,"Ab0212: IgG4 PE; 16H7 VL (N93E); 16H7 VH (I83T, D109Y)"
19,invalid fit,"Ab0302: IgG4 PE; 16H7 VL (D50E, D91T); 16H7 VH (M34V, I83T, D109E)"
20,0.00188 s⁻¹,"Ab0207: IgG4 PE; 16H7 VL; 16H7 VH (I83T, D109Y)"

# More lines, now with the values behind:
row,Substance,koff human KLB
1,"Ab0208: IgG4 PE; 16H7 VL (N25S); 16H7 VH (I83T, D109Y)",0.0021 s⁻¹
2,"Ab0197: IgG4 PE; 16H7 VL (D91T); 16H7 VH (I83T, D109E)",0.00167 s⁻¹
3,"Ab0214: IgG4 PE; 16H7 VL; 16H7 VH (I83T, D109S)",0.00121 s⁻¹
4,"Ab0202: IgG4 PE; 16H7 VL (D49Y); 16H7 VH (M34V, I83T, D109E)",0.00161 s⁻¹
5,"Ab0210: IgG4 PE; 16H7 VL (D50E); 16H7 VH (I83T, D109Y)",invalid fit
6,"Ab0209: IgG4 PE; 16H7 VL (D49Y); 16H7 VH (I83T, D109Y)",invalid fit
7,"Ab0194: IgG4 PE; 16H7 VL (N25S); 16H7 VH (I83T, D109E)",0.000402 s⁻¹
8,"Ab0220: IgG4 PE; 16H7 VL (D95E); 16H7 VH (I83T, D109S)",invalid fit
9,"Ab0188: IgG4 PE; 16H7 VL (D49Y); 16H7 VH (M34V, I83T)",0.00084 s⁻¹
10,"Ab0199: IgG4 PE; 16H7 VL (D95E); 16H7 VH (I83T, D109E)",invalid fit
11,"Ab0307: IgG4 PE; 16H7 VL (D49Y, N93E); 16H7 VH (M34V, I83T, D109E)",0.00118 s⁻¹
12,"Ab0198: IgG4 PE; 16H7 VL (N93E); 16H7 VH (I83T, D109E)",0.000346 s⁻¹
13,"Ab0195: IgG4 PE; 16H7 VL (D49Y); 16H7 VH (I83T, D109E)",0.00267 s⁻¹
14,"Ab0309: IgG4 PE; 16H7 VL (D50E, N93E); 16H7 VH (M34V, I83T, D109E)",0.00103 s⁻¹
15,"Ab0211: IgG4 PE; 16H7 VL (D91T); 16H7 VH (I83T, D109Y)",invalid fit
16,"Ab0306: IgG4 PE; 16H7 VL (N25S, N93E); 16H7 VH (M34V, I83T, D109E)",0.000288 s⁻¹
17,"Ab0216: IgG4 PE; 16H7 VL (D49Y); 16H7 VH (I83T, D109S)",0.00984 s⁻¹
18,"Ab0205: IgG4 PE; 16H7 VL (N93E); 16H7 VH (M34V, I83T, D109E)",0.000334 s⁻¹
19,"Ab0191: IgG4 PE; 16H7 VL (N93E); 16H7 VH (M34V, I83T)",0.000144 s⁻¹
20,"Ab0296: IgG4 PE; 16H7 VL (N25S, D50E); 16H7 VH (M34V, I83T, D109E)",0.00137 s⁻¹
21,"Ab0200: IgG4 PE; 16H7 VL; 16H7 VH (M34V, I83T, D109E)",0.000369 s⁻¹
22,"Ab0217: IgG4 PE; 16H7 VL (D50E); 16H7 VH (I83T, D109S)",0.002 s⁻¹
23,"Ab0213: IgG4 PE; 16H7 VL (D95E); 16H7 VH (I83T, D109Y)",invalid fit
24,"Ab0187: IgG4 PE; 16H7 VL (N25S); 16H7 VH (M34V, I83T)",0.000156 s⁻¹
